Source: PMC5537066, “Dimerization facilitates the conformational transitions for bacterial phosphotransferase enzyme I autophosphorylation in an allosteric manner” (FEBS Open Bio, 2017)

B1: C-terminal domain of enzyme I with the G356S mutation, EIC(G356S) (domain or fragment)
chain: not shown
notes: C-terminal dimerization domain (EIC) of enzyme I, E. coli, residues 231-575, with G356S; also called EIC(G365S) (misprint in the text); source: E. coli BL21star (DE3), purified (DEAE or HisTrap, Superdex, monoQ)
B2: Enzyme I (EI) with the active site H189A mutation, EI(1-575, H189A) (enzyme)
chain: not shown
notes: Enzyme I (EI) of the bacterial phosphotransferase system, E. coli, full length EI(1-575), with H189A; also called EIA; EI(H189A); source: E. coli BL21star (DE3), purified (DEAE or HisTrap, Superdex, monoQ)
B3: Enzyme I with the H189A and G356S mutations, EIA(G356S) (enzyme)
chain: not shown
notes: Enzyme I (EI) of the bacterial phosphotransferase system, E. coli, full length EI(1-575), with H189A and G356S; also called EI(G356S); source: E. coli BL21star (DE3), purified (DEAE or HisTrap, Superdex, monoQ)
B4: C-terminal domain of enzyme I, EIC(231-575) (domain or fragment)
chain: not shown
notes: C-terminal dimerization domain (EIC) of enzyme I, E. coli, residues 231-575, includes part of the connecting helix 231-260; source: E. coli BL21star (DE3), purified (DEAE or HisTrap, Superdex, monoQ)

Tests used:
[1] = target: the molecule itself; experiment: SEC-MALS; 200 uM protein injected on a WTC-0303 column, buffer A with 10 mM PEP, 25 °C; dimer to monomers
[2] = target: the molecule itself; experiment: SEC-MALS; 200 uM protein injected on a WTC-0303 column, buffer A (20 mM Tris/HCl pH 7.4, 100 mM NaCl, 2 mM β-mercaptoethanol, 4 mM MgCl2), 25 °C, without PEP; 50 uM elution concentration; KD (dimer to monomers) estimated from the dimer fraction, semiquantitative

Row | Protein | percent dimer [1] [%] | Kd [2] [µM] | stoichiometry N [2] | stoichiometry N [1]
1 | B1 | ~80 | ≥ 5 | 2 | 
2 | B2 | > 90 | ~0.4 | 2 | 
3 | B3 | > 90 | ~30 |  | 2
4 | B4 |  |  | 2 | 
